Patent publication US20090018093

Tests used:
[1] = tested on: Immunoglobulin E (IgE) (Homo sapiens), P01854-1; assay: FP_none; details: 2'-OMe G2 and all C,U, rest 2'-deoxy, 3' idT [2'-OMe at 2,3,4,5,11,12,13,15,22,23, 3'-idT at 24]
[2] = tested on: Immunoglobulin E (IgE) (Homo sapiens), P01854-1; assay: FP; details: 2'-F C and U; nitrocellulose dot blot filter, not fluorescence; biphasic, KD2 12.5 nM; 1xSHMCK + 0.1 mg/mL tRNA, RT
[3] = tested on: Immunoglobulin E (IgE) (Homo sapiens), P01854-1; assay: inhibition; details: 2'-F C,U
[4] = tested on: Immunoglobulin E (IgE) (Homo sapiens), P01854-1; assay: filter; details: 2'-F C and U; KD2 17.1 nM; 1xSHMCK + tRNA
[5] = biological target: T1, Immunoglobulin E (IgE), cynomolgus (Macaca fascicularis) (UniProt A0A7N9DC98); assay: inhibition; details: 2'-F C,U; no inhibition of monkey IgE-FceR1 up to 1 uM
T1 sequence: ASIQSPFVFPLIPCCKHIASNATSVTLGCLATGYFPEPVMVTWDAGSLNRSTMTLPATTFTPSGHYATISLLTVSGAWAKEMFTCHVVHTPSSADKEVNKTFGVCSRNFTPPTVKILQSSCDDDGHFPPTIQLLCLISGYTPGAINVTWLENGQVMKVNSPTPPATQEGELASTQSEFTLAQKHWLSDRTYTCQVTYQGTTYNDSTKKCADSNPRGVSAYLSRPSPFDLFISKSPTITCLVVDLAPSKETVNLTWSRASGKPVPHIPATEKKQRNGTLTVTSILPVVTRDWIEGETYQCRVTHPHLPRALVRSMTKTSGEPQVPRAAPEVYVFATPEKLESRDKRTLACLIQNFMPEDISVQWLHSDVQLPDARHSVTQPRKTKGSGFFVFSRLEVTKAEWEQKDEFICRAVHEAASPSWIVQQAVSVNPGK

Sequence of Immunoglobulin E (IgE) (Homo sapiens), P01854-1 (P01854 other isoform, or with tags, fused parts or gaps): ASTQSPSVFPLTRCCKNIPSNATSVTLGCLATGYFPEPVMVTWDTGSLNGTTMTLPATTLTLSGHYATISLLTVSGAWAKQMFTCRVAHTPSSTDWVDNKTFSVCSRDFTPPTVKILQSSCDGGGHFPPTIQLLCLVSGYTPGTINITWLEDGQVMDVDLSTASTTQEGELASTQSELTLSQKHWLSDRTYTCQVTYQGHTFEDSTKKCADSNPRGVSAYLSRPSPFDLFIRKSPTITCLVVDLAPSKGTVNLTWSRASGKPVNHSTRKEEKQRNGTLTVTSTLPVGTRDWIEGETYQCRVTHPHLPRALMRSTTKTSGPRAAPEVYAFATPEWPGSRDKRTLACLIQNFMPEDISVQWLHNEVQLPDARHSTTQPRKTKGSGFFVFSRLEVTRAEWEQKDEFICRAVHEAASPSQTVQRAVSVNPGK

AGCCUGGGGACCCAUGGGGGGCU [ARC1251]
Kd [1]: 7 nM

GGGAAAAGCGAAUCAUACACAAGACGUCGCCAGAUUGAGUGUCGUGGUUCGGGUUGAGGCGGAAGCUCCGCCAGAGACCAACCGAGAA [rRfY clone SEQ 11]
Kd [2]: 0.144 nM
IC50 ([3]; ELISA FceR1-Fc, FACS 14 nM (Table 25)): 2.6 nM

GGAGAUCCGAGGGUGGGCAAUAGGCUCACAAGGGUUU [rRfY minimer SEQ 93]
Kd [4]: 0.65 nM
IC50 ([3]; FACS, 15 nM IgE): 12.5 nM
IC50 [5]: > 1000 nM
